# Source: paper PMC11461855 (Nature Communications, 2024)
# B1: HA-mNKX6.1 (HA-tagged full-length mouse Nkx6-1) (natural protein)
# chain: MLAVGAMEGPRQSAFLLSSPPLAALHSMAEMKTPLYPAAYPPLPTGPPSSSSSSSSSSSPSPPLGSHNPGGLKPPAAGGLSSLGSPPQQLSAATPHGINDILSRPSMPVASGAALPSASPSGSSSSSSSSASATSASAAAAAAAAAAAAAASSPAGLLAGLPRFSSLSPPPPPPGLYFSPSAAAVAAVGRYPKPLAELPGRTPIFWPGVMQSPPWRDARLACTPHQGSILLDKDGKRKHTRPTFSGQQIFALEKTFEQTKYLAGPERARLAYSLGMTESQVKVWFQNRRTKWRKKHAAEMATAKKKQDSETERLKGTSENEEDDDDYNKPLDPNSDDEKITQLLKKHKSSGGSLLLHASEAEGSS
# Biological target: T1, mMED15-FLAG (Flag-tagged mouse Med15) (mouse, UniProt Q924H2 1-789)
# T1 sequence: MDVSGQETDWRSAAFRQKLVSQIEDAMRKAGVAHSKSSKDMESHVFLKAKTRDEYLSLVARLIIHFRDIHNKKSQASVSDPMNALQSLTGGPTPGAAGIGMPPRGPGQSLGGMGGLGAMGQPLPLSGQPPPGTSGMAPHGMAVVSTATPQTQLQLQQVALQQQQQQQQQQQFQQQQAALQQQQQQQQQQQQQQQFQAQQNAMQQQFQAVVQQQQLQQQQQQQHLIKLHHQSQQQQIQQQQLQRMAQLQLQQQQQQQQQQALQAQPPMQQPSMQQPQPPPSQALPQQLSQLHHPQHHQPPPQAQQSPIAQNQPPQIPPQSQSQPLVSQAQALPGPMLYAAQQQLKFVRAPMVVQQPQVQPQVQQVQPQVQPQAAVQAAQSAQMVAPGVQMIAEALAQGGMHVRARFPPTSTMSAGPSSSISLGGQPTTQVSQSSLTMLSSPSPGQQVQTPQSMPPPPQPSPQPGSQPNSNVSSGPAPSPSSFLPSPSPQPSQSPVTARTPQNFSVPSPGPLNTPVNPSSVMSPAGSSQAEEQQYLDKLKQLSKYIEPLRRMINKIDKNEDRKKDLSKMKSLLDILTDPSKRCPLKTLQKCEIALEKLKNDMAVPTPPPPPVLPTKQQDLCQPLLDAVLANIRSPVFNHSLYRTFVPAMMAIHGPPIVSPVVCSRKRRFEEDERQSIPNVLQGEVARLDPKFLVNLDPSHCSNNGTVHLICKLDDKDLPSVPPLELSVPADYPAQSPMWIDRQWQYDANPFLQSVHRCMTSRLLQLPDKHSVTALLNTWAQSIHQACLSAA
# Experiment: pull-down
binder,measurement,value
B1,binding result,binds
